Assay results as given in the NTF2 design screens of Basanta et al. (2020).

test: protease stability score; higher = more stable; yeast display proteolysis, trypsin and chymotrypsin;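 note: log10 excess protease needed over predicted unfolded state with 0 meaning unfolded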

Row | Sequence | protease stability score
1 | DEEDFNNAQSMIKDEEQGDEEQITRNLDPNVKIRVGDKRLHGRENYAREVARKARRIRVEVHIRSVSHSGNHIRIDVEVHEQQNGKPDHSRFVVLMHYNNGTVKKAQFDDTD | 0.103
2 | DEEDHKKILQKIADVYQRGNPNQQRDLMDENARVVIGNTKFHGREQAMEAAEERRRQVDRIQLTSIDVHGNKFHIRVTLDINGKTVDIHIDVEVHNGKIKDVQVDPRAEKFFKG | 0.202
3 | DEEDHQKIAHSLAEVLKTGDPDRMMELADENVKFQVGDKTYHGREELKKYMEQLHRHADHIEIDHISVQGDKIRIHARMNVNGREHTFVIQVEIHNGRAKSITFQYG | 1.53
4 | DEEDIAHQWQDKMRTAFKDNDPEQFTQLADEDAKMHVGDTEYHGRDTIMKTLVDEAKRADRITFNVQDFRVNGNNVVVRLEIRMQHNGKEDSKVVRLVFNQSGDDMRLRYAHDG | 0.338
5 | DEEDIARQLAEDFRKVLENGDPDEMRKNADKDARLKVGDKQVHGRDEMVKYFEKLNKEYDRVHIHIKSVSAQGDKLRVEIQVVWNSNGKNDKTTYDLVFQHDDGHVKLLEIRES | 0.539
6 | DEEDIRRIVHEFNRAVQRGNPDDVVRLLDKHAKIVVGEFDVTGREDARKFAEQLRSMADHVTIKSMSVQGDKAHVVIVFDINGKKLTLTFEVQLHNGRVQNLHVDVRDEEEFSRNVG | 0.782
7 | DEEDKADQFLRDLRQALQHNDENRMKELADKDARLNVGDKSVQGREQVVEHLVEKAKQVDDIKINIHTIKVHDGRFKFRATFVFNHNGKEESDEIVLVAHESNGKLKLLEVKEG | 1.14
8 | DEEDKKKLNHTVANVIQHGDEKQARRLMDPNVKVVIGDKTYNGRHKATEALKTLRDRADEIRVHDFRLEGDHINIIIELHINGQQTTLEIEVQFSGDKIKSVVFKTR | 0.795
9 | DEEDKKRLDTFDDNEDRGDRTKVRELADPNAKYEYGDNTVHGREDLEKMVHHLKNQLRIRVKSVEKRMHNGTLRASQREQQDHNGRPDDNSFDQDVHIHNGRIKQNVVEERK | -0.15
10 | DEEDKMTELTSRMIQAVRQNDFHKIVDQFDKNVTFEVGDHRVHGRTQAQEWARHLLRRVDHATVNLKHVEVQGDTARVKMQLILDRNGRRETRTVIIEAEIDGDKVRAKKLSIG | 1.66
11 | DEEDLDRVESALRTNDPDTLSEMADKDVKVEYGDKSYQGRERFQHFIKQLAHQVDHVEVRSVDKRGDRLKATRVLVINGRSITVVVTIEARNGRIKMLEMSARNESQEKKLVELFQ | 0.941
12 | DEEDLDTVAQTFVTALKQGDPHQVMKLADEDVKATVGDERVHGSQHVNELIKRFRRNVDHVDIEDYRIHNGKIRMRVRLTVNGRTQNLNMVLIVRNGRLKMFKIDPQDVRQFHG | 0.972
13 | DEEDLERMQDFMRAINKGDEDRLTKLVDENVHWVVGDKRVHGREQLRKEVDRRREKMSIKFDRVDAHADNGHAVVNIEYNVKHNGQPTSNFVRVQAEATNGKIKEVVVQEDK | -0.279
14 | DEEDLHHLAREMKDLMQRGDHKRFEELADENARLIIGDKTVTGRTRIKDELRKWREEADHIQIHDVRASGNRINLDIRVVVNGQEHRFIVIIELKNGKVSQMEVEDS | 1.91
15 | DEEDLHNALNAWKAFNTGDPDRAVQLADPNVNVVIGDKHVHGREQLSHEIKRVRHESNVQVRHVNNDNQGEKAKVQAEMVDTQNGQPRTFTVDIDVRAHNGKLKEVKVQEQD | -0.322
16 | DEEDLHRNMKQMLKDFNTGDPDKIQEQIDPNAKVQVGDTTFHGREEAHRMARDFRHQVDHIQLKEVKVRGNEFEASVVVKYDGKERRFVMQANVHNGKVKKLWFEDK | 0.063
17 | DEEDLKEFVKILKEGDPEKLKKMVDENVTIEIGDKRVSGKEKARDLAENFRERVDSHHIHRVDIEGERMVVDVEVSVNGRRIRYTLFAEVHNGKLKQQSVQYTSEEQRKLLTEMWT | 0.3
18 | DEEDLKHMNENFESGNPDQIVEMFDKDARITVGNKKYRGREDIRKFAEMIRKQVDNRRLKSVEVEGNKFRIQWMFVVNGRRIEAVLHVHAHNGKVKEMSIEVTNPEDQTQYDRDAD | 1.66
19 | DEEDLKKLAKELEKAIKTGDPQKIVDMADPNAKAQIGDKEVHGQENLHEAMQKLSREVDHIEIRSLSIHGEKVELVFVLQVNGRKRTYTVEMTAHNGKITHMTWRHQ | 0.284
20 | DEEDLKKVVDQLIKAVVNGDVEKIVKYIDEDVEFKLGDTKYKGKEEAKKVVTKLVQVGAEVHVDHVRVKGDEAEVDTVWHIGNTEAHMTVKYVVRGDKVERVEVRWTEEVKKAIKAG | 1.46
21 | DEEDLKNQARDFIEALETGDEDQIARLADPDAEADVGDTKYTGREEVREYMKHISDNVDHIQLKDMKVSGNEITIVAVLNVNGHEFDMEIHIELHNGRAKTIRIDPRAINHMTK | 0.746
22 | DEEDLKRLAETFADALQRNDPSQLNKMIDPNAKVQYGEKTFHGREKLHEWAHEMKKQADHFEIRSITVEGESVVIDLRMIVNGHERRLNLTMHLKNGRIQHLRADSR | 0.943
23 | DEEDLKRLREMHKAVSRGDPRQIQENMDPNVRVQYGDKTIHGREHIASELITKMKHWRLDFKRYHATVTPNRVQVHIDYIERHNGKPHKNKNKAEAEVDNGKIKRYQQSSDG | -0.03
24 | DEEDLKRVVDILHQNDPDQMIEMADENVKLEVGDKEFHGREEFSKFQRRIRDAVDHVEVKSLSHHNGRINMTFVLQINGRRIEFSAVVRVHNGKIKSMKVNATNEDDQSRFESQLS | 0.192
25 | DEEDLKTAHRRQRTNDFDRIRNKADKDAHVQVGDTQVHGREEVKKFMTLLKKRVDHVEIHDIEKKPGRLVVELRMNVNGQEIDLVVMFQFKNGSLKHMRFKVRDEDDKRKLEKALS | 0.432

Row | Sequence | protease stability score
26 | DEEDLKTMFDVMETGDPNQIADQFDKDARVVVGNRRVRGKEHIHTWAHEWRKNVDHQQVDSYEIKGDNARVDMQATINGTRFVFEIIIQVHNGKAKEMELRVRDEEEKKELDEVLE | -0.026
27 | DEEDLNKFAEHVVHALQEGNPDQLMHLADENVKMTVGDTSVEGKDQVSEYWTEMKERIDHFSYTSVDVRGNTIEIRFTADVDGRELRQVLIIEVRNGRAKSISIEDG | 1.88
28 | DEEDLQKLARSFQENLKTGNPDELMKLFDEDANLHYGDKKVHGREDIRRWADEMRRRVDKVTVLQVDAHGDKMDAVIVQRFDGRDVMISVDAKFHNGRFKEVVYRVRDEEHEKRLHT | 1.38
29 | DEEDLQRVAEEVARALDTGNPDKFNSLLDKDAKVNYGDKEYTGREELKKLQERIKEHVDHVHVKRVKVEGEKIHLDIEFEVNGRRFRDTIEARVHNGELQKVHVDPNFVRELKQ | 0.842
30 | DEEDLREIVEEMRTGDEDKFNKNLDENVKVEIGDKTWQGREQAQKMHADVMRRADNVRLKEYEVHNGHVDADLTVEINGRSVEYVMKIEIDNGTMKRIEVTVRDETQEDIQRKVLE | 0.309
31 | DEEDLRHLIELMEKGDFSRIADQADEDVRVDIGDKRIHGREQVLTYAEKLSKNIDHVKIQHYHVEGNKLVVDMVIVVNGKDVRATLTAEISNGRLKHMELHATNEEQQTRLKEIIS | 0.871
32 | DEEDLRKQANEVAEMFMHGDPTDAREQFDKHAEVQYGDKVVHGKEQAAQLVKEFRDNVDRVELKRVEAHGDKVTVTVVFTVNGRKVVIVFEMRIHNGKIKSVDAHVTSEELHKRMQD | 0.155
33 | DEEDLRTRASEFNKVLENNDPDRLNKLADKDATANYGDHEYHGREDIHHMAETMVRQVDRIEIKHVQARNGRVKVDLIMRVNGKEVKVDVTMEFHNGHLKLVTFDPDQVRKVEG | 0.673
34 | DEEDLSDVLDKMDKAIVRGDEQKLQDLADPNVRAEIGDQKYHGRDAITMFFKVLTEQVDHMRIKTVELQGNKLYIVVSAHFNGQTYDVRFVADAHNGRITRIYVDPQAQKRMEE | 1.29
35 | DEEDLTRLHKLWRNNNWKELVNQMDPNARVTVGDEVIQGRENVTHWADRVEHQIDHYEIKDFRRQGNKILVLFRAEVNGQRFEAIVAVLMVNGDVHHLEVRFRDERDEKKFKEHVS | 1.48
36 | DEEDMDEVEKAIRKNDPEKMRDLADENAKASVGDNQFHGRDNVENFMKHLTDHADHVQVDSVEKHNGRVVVNAQLDINGEQIQIVIRIDVHNGKIKRFSIEVRDEEAHHFMREMVS | 0.895
37 | DEEDMKKVVKQLLEAAQNGNTEKIVQLVKKDVEFKLGDTEYRGQEDVRKVVKKLRDIGAEFHVKEYEATGGEAKVKTVWHIGDNEAHVEVKYTVEDDKVDRVEVRWSEKAQKQIKKG | 0.801
38 | DEEDMKRVQDLIKAFQEGDPDKVVEQIDPNARIEVGDQHVSGRQHIRETIHNRVEEAEIHYESITLRVRGNTVEVRMVFVENKNGRPKRVHVKIEVQMHNGKVKEIREQEVS | 0.969
39 | DEEDMNTLQKMNEKNDEEKLQKLADEDARFVVGDKTLTGHHEFQTFVHRFVKHVDHLQVDSVEVQGNQVDLDVRAEINGRHYRFQIVIIIQNGRLKEYRLQATDEDEEEKFKKMIE | 1.25
40 | DEEDMQRFFKEFLKAQETGDPDEIRRQMDPNARAHVGDKEYHGREQVAKMFRDVRERVDRIRIESVDIQGNKANVDVTYNVNGRKARINVTLKAHNGRFKEMHFNPEDTKEMEK | 0.033
41 | DEEDNETALRTMMELIVEGNTNQAHRLFDENATVKIGDTTFHGREQIAQAIRHLHEQADHMEVKDFRLTGDKARANVQLHHNGKTIEVDVVFRVSNGRVKHMFIDPQQVRHLRG | 1.05
42 | DEEDNKTAKKLAKTGDPDEFAEQADEDVHIVVGDFEVHGRDELRKLMKRLKDHIDHKEIKRLRVHNGHVDLKFKAVFNGQEMEVSVILTARNGKIKRLEFRVRDDHAHELLEHLLK | 1.03
43 | DEEDNTKLKRIMQTGDFETLVHQADENAEFHYGDKTYHGNDQAHKAVENQKKQFDKIEVRSIETKNGHVHVEFRIEVNGRELVLTAFANVHNGRVKNATVQARSEEDRKSLKELDR | 0.044
44 | DEEDNTRLVNLFEHNDWDTIADQADPEAQLVIGDKTYTGREEVKKALSTLVERVDRIEFKRFDVHGNKIHVKMELRFDGRNIELVMRITIKNGRIKSIKIRARDKEVEKILKEMHS | 1.22
45 | DEEDQAKELAERYLEAMENGDEEKNARLADKDVSLTVGDKHVHGREELKKWFRTFVHRVDHVEIQVHDVKVSNGNATIDAEIKYTFNGRDVKKQVLMHAHVKNGELTLKRMTFE | 1.02
46 | DEEDQEKFARDFVRILKDGNPDRARKMFDENARVHVGEKVVHGRDQIRTLVEEIHRRADRINITDFRVHGNSFVFIVVLEKNGETRSFTIVVIVHNGRAQSMHVQSN | 0.96
47 | DEEDQERLEDFLRALKKGDEERLKELVDPNAQFEIGDTTYHGREHFLHTMRRKNEEIRVERDFHTVRAENGHVEMHFHAQENHNGRPRTFTAHATAVIHNGRLKSFVLKVDG | -0.026
48 | DEEDQHVAKEFFSAMLTNDTDKLRRLADPNVRAHIGDKVIHGKEQFVRHVHELVEHQRVQVDRMDLDVDGERVRVEMRHVNEENGQPNDRKAKNSMDIHNGEIKYVTIKTQS | -0.437
49 | DEEDQKELADEMVKVLETGDEDRFSQLLDKDVNINVGDQTYSGSEQAVKWFRELLDNVDSFKFDRVRVNGDQLQIHAILDVNGHDIHVVFQVQFHNGRAQHLNMRYTDDEEKKRFDS | 1.34
50 | DEEDQKHAESFFRNLINNNPEKLKEMADPNAEFEVGDKTLNGTEDLSKWAQKLKDQARMSIQSLTIRVENGRLSATMTFEVEHNGQPDRMKITAHASITNGKITHFMLRLDPKQYKSWVG | 0.493
